Source: KR20220139244A (dated 2022)
Read-outs that look alike come from different tables or passages of the source.

Experiments:
[1] = target: T1, SARS-CoV-2 spike 501Y.V2 (pseudovirus of Tables 8/23) (SARS-CoV-2); experiment: cell-based or functional assay
[2] = target: T1, SARS-CoV-2 spike 501Y.V2 (pseudovirus …); experiment: cell-based or functional assay; remark: listed apart in the source
[3] = target: SARS-CoV-2 spike 'D614 or G614' (pseudovirus of Table 23) (SARS-CoV-2, UniProt P0DTC2 14-1273); experiment: cell-based or functional assay
[4] = target: T2, SARS-CoV-2 RBD protein, wild type (recombinant) (SARS-CoV-2, UniProt P0DTC2 319-541); experiment: BLI
[5] = target: T2, SARS-CoV-2 RBD protein, wild type …; experiment: BLI (Octet), IgG culture supernatant

B1: No. 139 antibody (Full IgG) (antibody, V domains shown)
VH: QITLKESGPTLVKPTQTLTLTCSFSGFSLSTSGVGVGWIRQPPGKALEWLALIDWDDNKYHTTSLKTRLTISKDTSKNQVVLTMTNMDPVDTATYYCARIPGFLRYRNRYYYYGMDVWGQGTTVTVSS
VL: ELVLTQPPSVSAAPGQKVTISCSGSSSNIGNNYVSWYQQLPGTAPKLLIYDNNKRPSGIPDRFSGSKSGTSATLGITGLQTGDEADYYCGTWDSSLSAGVFGGGTELTVL
B1 gave an IC50 [1] of 0.33 µg/mL, an IC50 [2] of 0.33 µg/mL and an IC50 [3] of 0.00035 µg/mL.

B2: No. 32 antibody (Full IgG; Table 3/4 numbering) (antibody, V domains shown)
VH: EVQLVQSGGGLIQPGGSLRLSCAASEFIVSSNYMTWVRQAPGKGLEWVSIIYPGGSTYYADSVKGRFTISRDNSKNTLYLRMNSLRAEDTAVYYCARDLPLTGTTLDYWGQGTLVTVSS
VL: not shown
B2 gave a Kd [4] of 0.132 nM, a koff [4] of 0.000103 s⁻¹ and a kon [4] of 779000 M⁻¹ s⁻¹. For the same binder, the IC50 [2] was 0.06 µg/mL, the IC50 [3] was 0.00325 µg/mL and the Kd [5] was 0.147 nM.
